{"source": "paper PMC3903488", "about": "“Characterization of a Ginsenoside-Transforming β-glucosidase from Paenibacillus mucilaginosus and Its Application for Enhanced Production of Minor Ginsenoside F2” (PLoS ONE, 2014)", "proteins": {"B1": {"name": "BglPm (Paenibacillus mucilaginosus 3016) (protein)", "chain": "EYIFPQQFMFGSATAAYQVEGNNTNSDFWAEEHAEGSPYQDKSGDAVDHYRLYREDIALMASLGLKAYRFSIEWARIEPAPGQFSLSAIAHYRDVLQACYEHRLTPVVAMHHFSSPQWLMRFGGWGSEEVPERFAKYCEFVFQELGDLIPYVLTFNEVNLPVMLREVFSSIGIIPPVGIDGAAWTAPGWRASAAQLCGTTADRYVTFHMISDEPKIALLMEAHRRARQTIKRLQPNAKVGLSMALSDIQSVPGGEAWAQQKWQQYFEQYLPALEGDDFFGLQNYTREVYGPEGRVTPAADAELTQMKYEYYPEALGQVIRKVAKALTLPIFVTEHGVATDDDERRIEFIRRGLQGVHACLEEGIDVRGYLHWTTFDNFEWNAGYSMRFGLIGVDRTTQERTVKESARYLGRIASTKVL", "notes": "expressed in E. coli BL21(DE3)"}}, "key": {"[1]": {"substrate": "O=[N+]([O-])c1ccc(O[C@@H]2O[C@H](CO)[C@@H](O)[C@H](O)[C@H]2O)cc1", "experiment": "purified protein", "conditions": "0.1-10.0 mM substrate, standard activity assay 50 mM sodium phosphate pH 7.5, 37 °C"}, "[2]": {"substrate": "CC(C)=CCC[C@](C)(O[C@@H]1O[C@H](CO[C@@H]2O[C@H](CO)[C@@H](O)[C@H](O)[C@H]2O)[C@@H](O)[C@H](O)[C@H]1O)[C@H]1CC[C@]2(C)[C@@H]1[C@H](O)C[C@@H]1[C@@]3(C)CC[C@H](O[C@@H]4O[C@H](CO)[C@@H](O)[C@H](O)[C@H]4O[C@@H]4O[C@H](CO)[C@@H](O)[C@H](O)[C@H]4O)C(C)(C)[C@@H]3CC[C@]12C", "experiment": "initial velocity, non-linear regression", "format": "biochemical, Paenibacillus mucilaginosus", "conditions": "0.2-5.0 mM substrate; assay buffer not given", "excerpt": "(§1) initial velocity, non-linear regression on BglPm"}, "[3]": {"substrate": "CC(C)=CCC[C@](C)(O[C@@H]1O[C@H](CO)[C@@H](O)[C@H](O)[C@H]1O)[C@H]1CC[C@]2(C)[C@@H]1[C@H](O)C[C@@H]1[C@@]3(C)CC[C@H](O[C@@H]4O[C@H](CO)[C@@H](O)[C@H](O)[C@H]4O[C@@H]4O[C@H](CO)[C@@H](O)[C@H](O)[C@H]4O)C(C)(C)[C@@H]3CC[C@]12C", "experiment": "initial velocity, non-linear regression", "format": "biochemical, Paenibacillus mucilaginosus", "conditions": "0.2-5.0 mM substrate; assay buffer not given", "excerpt": "as §1"}}}
{"protein": "B1", "values": [{"measurement": "Km", "setting": "[1]", "result": "3.24 ± 0.39", "unit": "mM"}, {"measurement": "Vmax", "setting": "[1]", "result": 10.2, "unit": "µmol/min/mg"}, {"measurement": "kcat", "setting": "[1]", "result": 8.13, "unit": "s⁻¹"}, {"measurement": "kcat/Km", "setting": "[1]", "result": 2560, "unit": "M⁻¹ s⁻¹"}, {"measurement": "Km", "setting": "[2]", "result": "0.384 ± 0.064", "unit": "mM"}, {"measurement": "Vmax", "setting": "[2]", "result": 0.369, "unit": "µmol/min/mg"}, {"measurement": "kcat", "setting": "[2]", "result": "0.458 ± 0.018", "unit": "s⁻¹"}, {"measurement": "kcat/Km", "setting": "[2]", "result": "1230 ± 250", "unit": "M⁻¹ s⁻¹"}, {"measurement": "Km", "setting": "[3]", "result": "0.352 ± 0.053", "unit": "mM"}, {"measurement": "Vmax", "setting": "[3]", "result": 0.484, "unit": "µmol/min/mg"}, {"measurement": "kcat", "setting": "[3]", "result": "0.601 ± 0.066", "unit": "s⁻¹"}, {"measurement": "kcat/Km", "setting": "[3]", "result": "1780 ± 460", "unit": "M⁻¹ s⁻¹"}]}
